Reference: patent KR20170011863A

Substrate: B형 간염 바이러스의 표면 항원 (Hepatitis B surface antigen; HBsAg) (Hepatitis B virus)
Experiment: cell-based or functional assay

B1: GC1102 (HBsAg에 대한 인간 HBV 항체) (antibody, V domains shown)
VH: QVKLLESGGGLVKPGGSLRLSCSASGFSLTKYKMTWVRQAPGKGLEWVSSISSTSRDIDYADSVKGRFTISRDNAKNSLFLQMSSLRVDDTAVYYCTRDGWLWGWDVRSNYYYNALDVWGQGTTVTVSS
VL: ELVMTQSPSSLSASVGDRVTITCRASQGIYNSIAWYQQKPGKAPKLLLYSTSTLLSGVPSRFSGSGSGTDYTLTITNLQPEDFATYYCQQYFVTPETFGQGTKVEIKR
  EC50 (effective concentration) of inhibition of HBV infection of HepG2-NTCP cells: 0.015 µg/mL
  EC50 (effective concentration) of inhibition of HBV infection of HepG2-NTCP cells, converted to molar concentration (150 kDa): 100 pM
